Substitutions are numbered along the chain they refer to. Blank lines part the entries; values can stand above or below the binder they belong to.
Key:
[1] = biological target: T1, recombinant, soluble human ASGR-1 (human, UniProt P07306 62-291); experiment: Octet BLI dissociation, pH 5.6 minus calcium
T1 construct: biotinylated in the binning assay; also called soluble huASGR-1; Soluble ASGR-1 (Amgen)
T1 sequence: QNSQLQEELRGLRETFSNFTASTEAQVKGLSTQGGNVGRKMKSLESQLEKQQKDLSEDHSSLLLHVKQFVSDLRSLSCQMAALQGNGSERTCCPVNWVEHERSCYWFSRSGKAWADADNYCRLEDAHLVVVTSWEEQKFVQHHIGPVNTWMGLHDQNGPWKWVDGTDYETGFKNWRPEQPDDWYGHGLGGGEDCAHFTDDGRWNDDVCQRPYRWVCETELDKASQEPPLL
In short: (§1)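 Antibodies were captured on anti-human Fc biosensors, and soluble ASGR-1 (6 ug/ml) was associated for 2 min in Tris buffer containing 1 mM CaCl2 at pH 7.4, followed by 10 min dissociation under each test condition. The signal at the end of association was set as 100%. Percent ASGR-1 still bound after 1 min of dissociation was compared with the pH 7.4 plus calcium control, and >10% extra dissociation was scored as sensitive.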

[2] = biological target: T1, recombinant, soluble human ASGR-1; experiment: Octet BLI dissociation, pH 7.4 minus calcium
In short: as §1

[3] = biological target: T1, recombinant, soluble human ASGR-1; experiment: Octet BLI dissociation, pH 5.6 plus calcium
In short: as §1

% Change Compared to pH 7.4 + Calcium [1]: 61%
% Change Compared to pH 7.4 + Calcium [2]: 34%
% Change Compared to pH 7.4 + Calcium [3]: 7%
B1: 65D5 (antibody, V domains shown)
VH: QVQLVQSGAEVKKPGASVKVSCKASGYTFPSYGISWVRQAPGQGLEWMGWISAYSGNTNYAQKLQGRVTMTTDTSTSTAYMELRSLRSDDTAVYFCARGEAVAVFDPWGQGTLVTVSS
VL: DIQMTQSPSSLSASVGDRVTITCRASQDINNYLAWFQQKPGKAPRSLIYAASSLHSGVPSQFSASGSGSDFTLTISSLQPEDFATYYCPLYKSYPLTFGPGTKVDIK
notes: hybridoma mAb

% Change Compared to pH 7.4 + Calcium [1]: 52%
% Change Compared to pH 7.4 + Calcium [2]: 81%
% Change Compared to pH 7.4 + Calcium [3]: 36%
B2: 66H11 (antibody, V domains shown)
VH: B1 VH with P30A, S31T, S55N, F95Y
VL: DIQMTQFPSSLFAFVGDRVTITCPASQGISNYLAWFQQKPGKAPKSLIYGAFNLHSGVPSKFSGSGFGTDFTLTINSLQPEDFANYYCQQYSCYPFTFGHGTKVDIK
notes: hybridoma mAb

% Change Compared to pH 7.4 + Calcium [1]: -5%
% Change Compared to pH 7.4 + Calcium [2]: -1%
% Change Compared to pH 7.4 + Calcium [3]: -5%
B4: 190F8 (antibody, V domains shown)
VH: QVQLVESGGGVVQPGRSLRLSCAASGFTFSTYGMHWVRQAPGKGLEWVAVIWYDGSNKNYADSVKGRFTISRDNSKNTLYLQMNSLRAEDTAVYYCARDQGVGYDGLDVWGQGTTVTVSS
VL: DIQMTQSPSSLSASVGDRVTITCRTSQGIGNYLAWFQQKPGKAPKSLLYKASSLQSGVPSKFSGSGSGTDFTLTISSLQPEDFATYYCQQYMTYPLTFGGGTKVEIK
notes: hybridoma mAb

% Change Compared to pH 7.4 + Calcium [1]: -6%
% Change Compared to pH 7.4 + Calcium [2]: -1%
% Change Compared to pH 7.4 + Calcium [3]: -6%
B5: 190C11 (antibody, V domains shown)
VH: B4 VH with T31S
VL: B4 VL with A51T
notes: hybridoma mAb

% Change Compared to pH 7.4 + Calcium [1]: -1%
% Change Compared to pH 7.4 + Calcium [2]: 1%
% Change Compared to pH 7.4 + Calcium [3]: -7%
B7: 72G9 (antibody, V domains shown)
VH: EVQLVESGGGLVKPGGSLRLSCAASGFTFSSYSMNWVRQAPGKGLEWVSSISGSSSYIYYADSVKGRFTISRDNAKNSLYLQMNSLRAEDTAVYFCARGGSRGFDPWGQGTLVTVSS
VL: DIQMTQSPSSLSASVGDRVTITCRASQSITSYLNWYQQKPGKAPKLLIYTASSLQSGVPSRFSGSGSGTDFTLTISSLQPEDFATYYCQQSHSFPFTFGPGTKVDIK
notes: hybridoma mAb

% Change Compared to pH 7.4 + Calcium [1]: 62%
% Change Compared to pH 7.4 + Calcium [2]: 100%
% Change Compared to pH 7.4 + Calcium [3]: 33%
B9: 73G1 (antibody, V domains shown)
VH: QVQLVESGGGVVQPGRSLRLSCAGTGFTFSYYGMHWVRQAPGKGLEWVAVTTYDGSNKYYADSVKGRFTSSRDNSKNTLYLQMNSLRAEDTAVYHCARETGTWAFDIWGQGTMVTVSL
VL: QTVVTQEPSFSVSPGGTVTLTCGLSSGSVSTSYYPSWYQQTPGQAPRTLIYNTNTRSSGVPDRFSGSILGNKAALTITGAQADDESDYYCVLYMGSAIWVFGGGTKLTVL
notes: hybridoma mAb

% Change Compared to pH 7.4 + Calcium [1]: 45%
% Change Compared to pH 7.4 + Calcium [2]: 25%
% Change Compared to pH 7.4 + Calcium [3]: 0%
B13: 179C2 (antibody, V domains shown)
VH: QVQLVESGGGVVQPGRSLRLSCAASGFTFSSYGMHWVRQAPGKGLEWVALIFYDGSNKYYADSVKGRFTISRDNSKNTLFLQMNSLRAEDTAVYYCARRYSGSWSGGMDVWGQGTTVTVSS
VL: DIVMTQTPLSLSVTPGQPASISCKSSQSLLHSEGKTYLYWYLQKPGQPPQLLIYEVSHRFSGVPDRFSGSGSGTDFTLKISRVEAEDVGVYYCMQSIQVLTFGGGTKVEIK
notes: hybridoma mAb

% Change Compared to pH 7.4 + Calcium [1]: 47%
% Change Compared to pH 7.4 + Calcium [2]: 45%
% Change Compared to pH 7.4 + Calcium [3]: 10%
B15: 148H10 (antibody, V domains shown)
VH: B13 VH with L50V, F52W, A61G, F80Y, G102S
VL: DIVMTQTPLSLSVTPGQPASISCKSSQSLLHSEGKTYLYWYLQKPGQPPQLLIYEVSYRVSGVPDRFSGSGSGTDFTLKISRVEAEDVGVYYCMQSIQLPLTFGGGTKVEIK
notes: hybridoma mAb

% Change Compared to pH 7.4 + Calcium [1]: -5%
% Change Compared to pH 7.4 + Calcium [2]: -3%
% Change Compared to pH 7.4 + Calcium [3]: -10%
B18: 210G10 (antibody, V domains shown)
VH: QVQLQESGPGLVKPSETLSLNCTVSGGSIRSYYWSWIRQPAGKGLEWIGRIYTSGSTDYNPSLKSRITMSVDTSKNQFSLKLSSVTAADTAVYYCARGFGDWDYWGQGTLVTVSS
VL: DIQMTQSPSSLSASVGDRVTITFRTSQGIRNDLGWYQQQPGKTPKRMIYAASSLFSGVPSRFSGSRSGTDFTLTISSLQPEDFATYYCLQYNSYPPTFGQGTRLEIK
notes: hybridoma mAb

% Change Compared to pH 7.4 + Calcium [1]: -3%
% Change Compared to pH 7.4 + Calcium [2]: -1%
% Change Compared to pH 7.4 + Calcium [3]: -7%
B19: 194A4 (antibody, V domains shown)
VH: QVQLVQSGTEVKKPGASLKVSCKASGYTFTVYYLNWVRQAPGQGLEWMGWINPNSGGTNYAQKFQGRVTMTRDTSISTAYMELSRLRSDDTAVYYCARGYDILTGWGQGTLVTVSS
VL: EIVLTQSPGTLSLSPGERATLSCRASRGVSNIYLAWYQQKPGQAPRLLIYGASNRATGIPDRFSGSGSGTDFTLTISRLEPEDFAVYYCQHNDYSMFTFGPGTKVDIK
notes: hybridoma mAb

Further lines, the binder ahead of its results:

B3: 190E6 (antibody, V domains shown)
VH: B4 VH with T31S
VL: B4 VL
notes: hybridoma mAb
% Change Compared to pH 7.4 + Calcium [1]: -6%
% Change Compared to pH 7.4 + Calcium [2]: -1%
% Change Compared to pH 7.4 + Calcium [3]: -12%

B6: 62H10 (antibody, V domains shown)
VH: B7 VH with G53S, F95Y
VL: B7 VL with A43V, Y49S, K103N, I106F
notes: hybridoma mAb
% Change Compared to pH 7.4 + Calcium [1]: 14%
% Change Compared to pH 7.4 + Calcium [2]: 13%
% Change Compared to pH 7.4 + Calcium [3]: -2%

B8: 4B1 (antibody, V domains shown)
VH: QVQLQESGPGLVKPSETLSLTCSVSGDSISSYSWSWIRQPAGKGLEWIGRIYTSGSTNYIPSLKSRITMSVDTSKKQFSLKLSSVTAADTAVYYCARDLKSSGCLFFDYWGQGTLVTVSS
VL: DIQMTQSPSSLSASVGDRVTITCRASHTIRTYLNWYQQKPGKAPKLLIYAASSLQSGVPSRINGSGSGTDFTLTITNLQPEDFATYYCQQSYNISFTFGPGTKVDIK
notes: hybridoma mAb
% Change Compared to pH 7.4 + Calcium [1]: -2%
% Change Compared to pH 7.4 + Calcium [2]: 6%
% Change Compared to pH 7.4 + Calcium [3]: -5%

B10: 60G2 (antibody, V domains shown)
VH: B13 VH with L50V, F52W, F80Y, G102R, S105T
VL: B15 VL with P18S, Y58N, V60I
notes: hybridoma mAb
% Change Compared to pH 7.4 + Calcium [1]: 31%
% Change Compared to pH 7.4 + Calcium [2]: 36%
% Change Compared to pH 7.4 + Calcium [3]: 7%

B11: 173C11 (antibody, V domains shown)
VH: B13 VH with M34I, F80Y, Q82H, N84S, G102S
VL: B13 VL with V99L
notes: hybridoma mAb
% Change Compared to pH 7.4 + Calcium [1]: 29%
% Change Compared to pH 7.4 + Calcium [2]: 17%
% Change Compared to pH 7.4 + Calcium [3]: 0%

B12: 49C1 (antibody, V domains shown)
VH: B13 VH with A23T, L50V, F52W, F80Y, G102S
VL: DIVMTQTPLSLSVTPGQPASISCKSSQSLLHREGKTYLYWYLQKPGQAPQFLIFEVSHRFSGVPDRFSGSGSGTDFTLKISRVEAEDVGVYYCMQSIQIPITLGQGTRLEIK
notes: hybridoma mAb
% Change Compared to pH 7.4 + Calcium [1]: 64%
% Change Compared to pH 7.4 + Calcium [2]: 72%
% Change Compared to pH 7.4 + Calcium [3]: 23%

B14: 60C12 (antibody, V domains shown)
VH: B13 VH with L50V, F52W, A61V, F80Y, G102R, S105T
VL: B15 VL with L51F, Y58N, V60F, V90I, Q98K, L99Y
notes: hybridoma mAb
% Change Compared to pH 7.4 + Calcium [1]: 12%
% Change Compared to pH 7.4 + Calcium [2]: 14%
% Change Compared to pH 7.4 + Calcium [3]: -3%

B16: 47C1 (antibody, V domains shown)
VH: B13 VH with S31D, A40T, L50V, F52W, A88D, G102R, S105V
VL: B15 VL with K24T, Y58N, V60F, Y91F, L101W, G105Q
notes: hybridoma mAb
% Change Compared to pH 7.4 + Calcium [1]: 10%
% Change Compared to pH 7.4 + Calcium [2]: 13%
% Change Compared to pH 7.4 + Calcium [3]: -1%

B17: 208A2 (antibody, V domains shown)
VH: B18 VH
VL: B18 VL with F23C, M47L, F55L
notes: hybridoma mAb
% Change Compared to pH 7.4 + Calcium [1]: -5%
% Change Compared to pH 7.4 + Calcium [2]: -4%
% Change Compared to pH 7.4 + Calcium [3]: -10%

B20: 51E3 (antibody, V domains shown)
VH: QVQLVQSGAEVKKPGASVKVSCKASGYTFNSYGISWVRLAPGQGLEWMGWISAYNGNTKNAQRFQGRVTMTTDTSTSTAYMELRSLRSDDTAVYYCARHDFWSGYYKGMDVWGQGTTVTVSS
VL: not shown
notes: hybridoma mAb
% Change Compared to pH 7.4 + Calcium [1]: 42%
% Change Compared to pH 7.4 + Calcium [2]: 65%
% Change Compared to pH 7.4 + Calcium [3]: 16%

B21: 54E9 (antibody, V domains shown)
VH: B20 VH with R63K, F64L
VL: not shown
notes: hybridoma mAb
% Change Compared to pH 7.4 + Calcium [1]: 75%
% Change Compared to pH 7.4 + Calcium [2]: 79%
% Change Compared to pH 7.4 + Calcium [3]: 24%

B22: 56E3 (antibody, V domains shown)
VH: B20 VH with I34F, L39Q, N60E, R63K, S88A
VL: not shown
notes: hybridoma mAb
% Change Compared to pH 7.4 + Calcium [1]: 16%
% Change Compared to pH 7.4 + Calcium [2]: 75%
% Change Compared to pH 7.4 + Calcium [3]: 21%

B23: 53E8 (antibody, V domains shown)
VH: B20 VH with L39Q, N60F, R63K, F64L
VL: not shown
notes: hybridoma mAb
% Change Compared to pH 7.4 + Calcium [1]: 64%
% Change Compared to pH 7.4 + Calcium [2]: 68%
% Change Compared to pH 7.4 + Calcium [3]: 20%

Reference: US20190248902A1 (published 2019)
